Assay results: the supplement of paper PMC9112550, “Optimization of the antimicrobial peptide Bac7 by deep mutational scanning” (BMC Biology, 2022)

Each sequence was assayed on Escherichia coli TOP10 (assay: shrunken log2 fold change of peptide-encoding DNA abundance (4.5 h post-induction vs induction); higher = less antimicrobial activity (less host growth inhibition)). Settings: time post-induction: 4.5 h; library: site-saturation at positions 5, 18, 19, 20.
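Also: peptides expressed intracellularly from a pBAD plasmid library in pooled LB shake-flask culture, induced with 0.3% L-arabinose, DNA abundance read by NGS, three biological replicates, DESeq2 with apeglm shrinkage.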

Sequence | shrunken log2 fold change
RRIRKRPPRLPRPRPRPWLAPRP | 0.201
RRIRMRPPRLPRPRPRPNMLPRP | -0.358
RRIRDRPPRLPRPRPRPIVEPRP | 0.0518
RRIRLRPPRLPRPRPRPEQMPRP | 0.126
RRIRRRPPRLPRPRPRPEDTPRP | 0.0364
RRIRCRPPRLPRPRPRPLCLPRP | -0.525
RRIRDRPPRLPRPRPRPPAAPRP | 1.13
RRIRLRPPRLPRPRPRPPYSPRP | -0.125
RRIRDRPPRLPRPRPRPPYTPRP | -0.0539
RRIRTRPPRLPRPRPRPTRRPRP | 0.71
RRIRIRPPRLPRPRPRPMSKPRP | -0.332
RRIRMRPPRLPRPRPRPHVFPRP | 0.0558
RRIRHRPPRLPRPRPRPARTPRP | 0.19
RRIRVRPPRLPRPRPRPQYFPRP | -0.19
RRIRARPPRLPRPRPRPKKGPRP | 0.364
RRIRDRPPRLPRPRPRPRAGPRP | 0.741
RRIRIRPPRLPRPRPRPPWCPRP | 1.45
RRIRIRPPRLPRPRPRPNSWPRP | -0.691
RRIRLRPPRLPRPRPRPLKLPRP | -0.117
RRIRKRPPRLPRPRPRPTDDPRP | 1.01
RRIRTRPPRLPRPRPRPRTYPRP | -0.288
RRIRLRPPRLPRPRPRPRCAPRP | 0.504
RRIRRRPPRLPRPRPRPGQRPRP | 0.386
RRIRPRPPRLPRPRPRPFFCPRP | 0.0262
RRIRLRPPRLPRPRPRPNNSPRP | -0.952

Sequence | shrunken log2 fold change
RRIRARPPRLPRPRPRPAEIPRP | 0.233
RRIRHRPPRLPRPRPRPRVYPRP | -0.0307
RRIRMRPPRLPRPRPRPREVPRP | 1.8
RRIRRRPPRLPRPRPRPEKHPRP | 0.121
RRIRRRPPRLPRPRPRPRDAPRP | 0.736
RRIRRRPPRLPRPRPRPDFPPRP | 0.897
RRIRVRPPRLPRPRPRPMDLPRP | 0.156
RRIRARPPRLPRPRPRPWRCPRP | 0.0472
RRIRTRPPRLPRPRPRPCEMPRP | 0.0671
RRIRNRPPRLPRPRPRPTDYPRP | -0.409
RRIRCRPPRLPRPRPRPDVLPRP | -0.489
RRIRDRPPRLPRPRPRPQTGPRP | -0.283
RRIRCRPPRLPRPRPRPEIMPRP | -0.0581
RRIRKRPPRLPRPRPRPVRGPRP | 0.732
RRIRIRPPRLPRPRPRPISYPRP | -0.197
RRIRPRPPRLPRPRPRPWGFPRP | -0.129
RRIRPRPPRLPRPRPRPCQEPRP | -0.0635
RRIRERPPRLPRPRPRPKNIPRP | -0.723
RRIRNRPPRLPRPRPRPPNCPRP | 0.00301
RRIRIRPPRLPRPRPRPMWCPRP | -0.168
RRIRWRPPRLPRPRPRPKFHPRP | -0.249
RRIRVRPPRLPRPRPRPIQKPRP | -0.017
RRIRFRPPRLPRPRPRPPFWPRP | 0.538
RRIRPRPPRLPRPRPRPHIFPRP | -0.0487
RRIRPRPPRLPRPRPRPVEEPRP | 0.54

Sequence | shrunken log2 fold change
RRIRRRPPRLPRPRPRPKFGPRP | 0.172
RRIRGRPPRLPRPRPRPMEDPRP | -0.0262
RRIRHRPPRLPRPRPRPHKLPRP | -0.279
RRIRLRPPRLPRPRPRPCYNPRP | -0.206
RRIRVRPPRLPRPRPRPPGMPRP | 0.172
RRIRWRPPRLPRPRPRPAVIPRP | 0.0266
RRIRTRPPRLPRPRPRPIELPRP | -0.0636
RRIRYRPPRLPRPRPRPVANPRP | -0.0575
RRIRGRPPRLPRPRPRPQPVPRP | 0.285
RRIRDRPPRLPRPRPRPMEVPRP | 0.142
RRIRFRPPRLPRPRPRPGHKPRP | 0.0531
RRIRNRPPRLPRPRPRPRPIPRP | 0.333
RRIRARPPRLPRPRPRPCMFPRP | 0.0445
RRIRYRPPRLPRPRPRPNMNPRP | -0.882
RRIRERPPRLPRPRPRPMLMPRP | -0.142
RRIRPRPPRLPRPRPRPEHKPRP | -0.00916
RRIRDRPPRLPRPRPRPYMNPRP | -0.665
RRIRHRPPRLPRPRPRPISHPRP | -0.0873
RRIRARPPRLPRPRPRPNLKPRP | 0.164
RRIRKRPPRLPRPRPRPMYQPRP | 0.056
RRIRTRPPRLPRPRPRPCAYPRP | -0.164
RRIRMRPPRLPRPRPRPWHDPRP | 0.162
RRIRARPPRLPRPRPRPMTPPRP | 0.913
RRIRWRPPRLPRPRPRPFWYPRP | -0.214
RRIRRRPPRLPRPRPRPAKRPRP | 0.863

Sequence | shrunken log2 fold change
RRIRTRPPRLPRPRPRPYNIPRP | -0.131
RRIRVRPPRLPRPRPRPNRVPRP | 0.0523
RRIRKRPPRLPRPRPRPCLYPRP | -0.0745
RRIRGRPPRLPRPRPRPLVYPRP | 0.0199
RRIRYRPPRLPRPRPRPISMPRP | 0.0342
RRIRTRPPRLPRPRPRPLHYPRP | -0.592
RRIRLRPPRLPRPRPRPVQTPRP | 0.102
RRIRARPPRLPRPRPRPYNFPRP | -0.192
RRIRIRPPRLPRPRPRPCFNPRP | -0.87
RRIRNRPPRLPRPRPRPCMKPRP | -0.507
RRIRPRPPRLPRPRPRPFHTPRP | -0.569
RRIRDRPPRLPRPRPRPRGWPRP | 1.35
RRIRDRPPRLPRPRPRPNMYPRP | -0.229
RRIRSRPPRLPRPRPRPLMLPRP | -0.581
RRIRLRPPRLPRPRPRPGREPRP | 0.231
RRIRERPPRLPRPRPRPGHLPRP | -0.0138
RRIRLRPPRLPRPRPRPRDTPRP | -0.0364
RRIRVRPPRLPRPRPRPKCGPRP | 0.0731
RRIRSRPPRLPRPRPRPQENPRP | -0.0522
RRIRCRPPRLPRPRPRPGHDPRP | -0.00827
RRIRHRPPRLPRPRPRPCCGPRP | -0.114
RRIRRRPPRLPRPRPRPWCCPRP | -0.0571
RRIRPRPPRLPRPRPRPFHFPRP | -0.339
RRIRLRPPRLPRPRPRPHSVPRP | -0.0683
RRIRVRPPRLPRPRPRPIWVPRP | 0.154

Sequence | shrunken log2 fold change
RRIRFRPPRLPRPRPRPIFAPRP | 0.161
RRIRYRPPRLPRPRPRPGRKPRP | -0.155
RRIRTRPPRLPRPRPRPMHPPRP | 0.0402
RRIRWRPPRLPRPRPRPALLPRP | 0.584
RRIRGRPPRLPRPRPRPAPQPRP | 1.15
RRIRQRPPRLPRPRPRPFDWPRP | -0.0369
RRIRLRPPRLPRPRPRPYNPPRP | -0.454
RRIRWRPPRLPRPRPRPVVYPRP | -0.228
RRIRIRPPRLPRPRPRPNKQPRP | -0.525
RRIRARPPRLPRPRPRPLTRPRP | 0.284
RRIRYRPPRLPRPRPRPVTPPRP | -0.118
RRIRDRPPRLPRPRPRPTDRPRP | 0.694
RRIRRRPPRLPRPRPRPCLSPRP | -0.114
RRIRKRPPRLPRPRPRPEVQPRP | 3.94
RRIRHRPPRLPRPRPRPHQPPRP | -0.0185
RRIRQRPPRLPRPRPRPLCHPRP | -0.142
RRIRCRPPRLPRPRPRPFRMPRP | -0.113
RRIRSRPPRLPRPRPRPSTFPRP | -0.109
RRIRWRPPRLPRPRPRPSWVPRP | 0.0566
RRIRMRPPRLPRPRPRPPSNPRP | 0.104
RRIRQRPPRLPRPRPRPHGLPRP | -0.327
RRIRPRPPRLPRPRPRPDGHPRP | 0.0433
RRIRHRPPRLPRPRPRPLKRPRP | -0.00686
RRIRERPPRLPRPRPRPHAWPRP | 0.146
RRIRPRPPRLPRPRPRPQEDPRP | -0.0602

Sequence | shrunken log2 fold change
RRIRDRPPRLPRPRPRPIMMPRP | -0.232
RRIRQRPPRLPRPRPRPKARPRP | 0.152
RRIRPRPPRLPRPRPRPDEMPRP | 0.377
RRIRHRPPRLPRPRPRPPFGPRP | -0.0898
RRIRLRPPRLPRPRPRPNTNPRP | -0.576
RRIRSRPPRLPRPRPRPPSYPRP | -0.555
RRIRRRPPRLPRPRPRPTAPPRP | 0.583
RRIRMRPPRLPRPRPRPLIKPRP | 0.0477
RRIRMRPPRLPRPRPRPLVPPRP | 0.208
RRIRDRPPRLPRPRPRPIPFPRP | -0.306
RRIRTRPPRLPRPRPRPNVWPRP | 0.0477
RRIRARPPRLPRPRPRPKKTPRP | -0.0919
RRIRFRPPRLPRPRPRPCTAPRP | -0.487
RRIRTRPPRLPRPRPRPGMHPRP | 0.0032
RRIRPRPPRLPRPRPRPNKQPRP | 0.0754
RRIRRRPPRLPRPRPRPVGKPRP | -0.105
RRIRYRPPRLPRPRPRPGFGPRP | -0.0613
RRIRNRPPRLPRPRPRPHFVPRP | -0.0954
RRIRPRPPRLPRPRPRPNIHPRP | -0.579
RRIRQRPPRLPRPRPRPGYTPRP | -0.912
RRIRLRPPRLPRPRPRPSVEPRP | 0.0961
RRIRRRPPRLPRPRPRPVVKPRP | -0.0155
RRIRTRPPRLPRPRPRPFPHPRP | -0.247
RRIRWRPPRLPRPRPRPLNPPRP | -0.0128
RRIRWRPPRLPRPRPRPQGRPRP | 0.64
